Where a chain is given by its changes, count along the chain named.
What was measured:
[1] = biological target: T1, human CD3 epsilon subunit (CD3e), as cell surface CD3 on Jurkat cells and on naive human T cells (human, UniProt P07766 23-207); test: FACS on Jurkat cells expressing CD3
T1 construct: On the cells CD3 epsilon is part of the whole CD3/TCR complex

[2] = biological target: T2, CD3ed (CD3 epsilon/delta fusion protein) (human); test: SPR, recombinant human CD3
T2 construct: Expressed in HEK293 and purified on His60 resin and by SEC; also called soluble human CD3ed antigen; hCD3ed
T2 chain: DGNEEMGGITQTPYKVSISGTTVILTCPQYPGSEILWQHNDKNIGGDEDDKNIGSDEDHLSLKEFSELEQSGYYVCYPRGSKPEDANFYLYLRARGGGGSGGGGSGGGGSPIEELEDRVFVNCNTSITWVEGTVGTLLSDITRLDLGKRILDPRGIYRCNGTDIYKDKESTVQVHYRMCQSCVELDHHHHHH

[3] = biological target: T1, human CD3 epsilon subunit (CD3e), as …; test: cell-based or functional assay
[4] = biological target: T1, human CD3 epsilon subunit (CD3e), as …; test: flow cytometry, cell surface binding to human CD3 on naive human T cells
From the text: Purified CD3 bispecific antibodies were titrated for cell surface binding to human CD3 on naïve human T cells purified from fresh human peripheral blood mononuclear cells (PBMCs), using the standard flow cytometry methods known in the art using BD LSRII Fortessa analyzer.

[5] = biological target: T1, human CD3 epsilon subunit (CD3e), as …; test: flow cytometry titration on naive human T cells (PE-A Geo Mean against Ab in nM); Kd printed beside the legend

B1: 2B5-0006 (2B5v6) (antibody, V domains shown)
VH: EVQLVESGGGLVQPGGSLRLSCAASGFTFSDYYMTWVRQAPGKGLEWVAFIRNQARGYTSDHNPSVKGRFTISRDNAKNSLYLQMNSLRAEDTAVYYCARDRPSYYVLDYWGQGTTVTVSS
VL: DIQMTQSPSSLSASVGDRVTITCTSSQSLFNVRSQKNYLAWYQQKPGKAPKLLIYWASTRESGVPSRFSGSGSGTDFTLTISSLQPEDFATYYCKQSYDLFTFGGGTKVEIK
notes: also called h2B5v6; parental 2B5v6
With B1 as the binder, how does the EC50 [1] read?
Its EC50 is 9.8 nM.

B2: GUCY2C-1608 (GUCY2c-2B5v6) bispecific antibody (bispecific antibody)
chain 1: DIQLTQSPSSLSASVGDRVTITCRASESVDYYGSSLLQWYQQKPGKAPKLLIYAASKLASGVPSRFSGSGSGTDFTLTISSLQPEDFATYYCQQTRKAYTFGQGTKLEIKGGGSGGGGEVQLVESGGGLVQPGGSLRLSCAASGFTFSDYYMTWVRQAPGKGLEWVAFIRNQARGYTSDHNPSVKGRFTISRDNAKNSLYLQMNSLRAEDTAVYYCARDRPSYYVLDYWGQGTTVTVSSGCPPCPAPEAAGAPSVFLFPPKPKDTLMISRTPEVTCVVVDVSHEDPEVKFNWYVDGVEVHNAKTKPREEQYNSTYRVVSVLTVLHQDWLNGKEYKCKVSNKALPAPIEKTISKAKGQPREPQVCTLPPSREEMTKNQVSLWCLVKGFYPSDIAVEWESNGQPENNYKTTPPVLDSDGSFFLYSKLTVDKSRWQQGNVFSCSVMHEALHNHYTQKSLSLSPG
chain 2: DIQMTQSPSSLSASVGDRVTITCTSSQSLFNVRSQKNYLAWYQQKPGKAPKLLIYWASTRESGVPSRFSGSGSGTDFTLTISSLQPEDFATYYCKQSYDLFTFGGGTKVEIKGGGGSGGGGEVQLVESGGGLVQPGGSLRLSCAASGFTFSSYWMHWVRQAPGKGLEWIGEIKPSNELTNVHEKFKDRFTISVDKAKNSAYLQMNSLRAEDTAVYYCTRTITTTEGYWFFDVWGQGTLVTVSSGCPPCPAPEAAGAPSVFLFPPKPKDTLMISRTPEVTCVVVDVSHEDPEVKFNWYVDGVEVHNAKTKPREEQYNSTYRVVSVLTVLHQDWLNGKEYKCKVSNKALPAPIEKTISKAKGQPREPQVYTLPPCREEMTKNQVSLSCAVKGFYPSDIAVEWESNGQPENNYKTTPPVLDSDGSFFLVSKLTVDKSRWQQGNVFSCSVMHEALHNHYTQKSLSLSPG
notes: Bispecific diabody-Fc
For B2, which Kd [2] is on record?
The Kd was 128 nM.

And the “In vitro Cytotoxicity” value [3]?
The value was 0.772 nM.

And the EC50 [4]?
The EC50 was 35.4 nM.

B3: GUCY2c-2B5 bispecific antibody (bispecific antibody, human IgG1)
chain 1: B2 chain 1 with S34T, L37M, A47P, K57N, L58V, A59E, A98V, Q172R
chain 2: DIQMTQSPSSLSASVGDRVTITCTSSQSLFNVRSRKNYLAWYQQKPGKAPKLLIYWASTRESGVPSRFSGSGSGTDFTLTISSLQPEDFATYYCKQSYDLFTFGGGTKVEIKGGGSGGGGEVQLVESGGGLVQPGGSLRLSCAASGYTFTSYWMHWVRQAPGKGLEWIGEIKPSNGLTNYIEKFKNRFTISVDKAKNSAYLQMNSLRAEDTAVYYCTRTITTTEGYWFFDVWGQGTLVTVSSGCPPCPAPEAAGAPSVFLFPPKPKDTLMISRTPEVTCVVVDVSHEDPEVKFNWYVDGVEVHNAKTKPREEQYNSTYRVVSVLTVLHQDWLNGKEYKCKVSNKALPAPIEKTISKAKGQPREPQVYTLPPCREEMTKNQVSLSCAVKGFYPSDIAVEWESNGQPENNYKTTPPVLDSDGSFFLVSKLTVDKSRWQQGNVFSCSVMHEALHNHYTQKSLSLSPG
notes: Bispecific diabody-Fc (knob-in-hole, effector null human IgG1 Fc); also called GUCY2c-0250
Which Kd [5] does the source give for B3 here?
Its Kd is 13.2 nM.

Reference: US20190382486A1 (Pfizer, published 2019)
